In paper PMC12410373, “Sad from Proteobacteria is a Structurally Distinct ALDH3 Enzyme Specialized for the Oxidation of Steroidal Aldehydes” (Biochemistry, 2025):

Columns and labels:
[1] = system: C[C@H](C=O)[C@H]1CC[C@H]2[C@@H]3CCC4=CC(=O)CC[C@]4(C)[C@H]3CC[C@]12C; assay: purified protein; conditions: 1 mM NAD+, 100 mM HEPES pH 7.5, 25 °C
O=Cc1ccccc1 [2] = assay: purified protein; conditions: 1 mM NAD+, 100 mM HEPES pH 7.5, 25 °C
O=Cc1ccccc1 [3] = system: T1, O=Cc1ccccc1; assay: purified protein; format: biochemical, Pseudomonas putida; conditions: 1 mM NAD+, 100 mM HEPES pH 7.5, 25 °C
T1 construct: full-length, His tag (pET28a, NdeI/HindIII), E. coli BL21 LOBSTR

[4] = system: T2, C[C@H](C=O)[C@H]1CC[C@H]2[C@@H]3CCC4=CC(=O)CC[C@]4(C)[C@H]3CC[C@]12C; assay: purified protein; format: biochemical, Pseudomonas putida; conditions: 1 mM NAD+, 100 mM HEPES pH 7.5, 25 °C
T2 construct: full-length, His tag (pET28a, NdeI/HindIII), E. coli BL21 LOBSTR

[5] = target: steroid aldehyde dehydrogenase (Sad) from Caldimonas tepidiphilia (Caldimonas tepidiphilia); assay: crystal structure; X-ray, 1.8 Å; sitting-drop vapor diffusion at 4 °C, 20 mg/mL Sad_(Ctepid), 40% MPD, 3% PEG 8000, 0.1 M sodium cacodylate pH 6.5, 10% glycerol; interface analysed with PISA

Row | Substance | Km [1] | kcat [1] | kcat/Km [1] | Km (O=Cc1ccccc1 [2]) | also measured
1 | PpBADH (Pseudomonas putida; F400A) | 4.35 ± 0.167 µM | 0.00284 ± 3.34e-05 s⁻¹ | 653 ± 75.1 M⁻¹ s⁻¹ | 59.5 ± 2.59 µM | 
2 | PpBADH (Pseudomonas putida; Y121A) |  |  |  | 700.4 ± 31.9 µM | 
3 | PpBADH (Pseudomonas putida; L125T) | 18.94 ± 1.07 µM | 0.0291 ± 0.000667 s⁻¹ | 1540 ± 36.8 M⁻¹ s⁻¹ | 3.18 ± 0.216 µM | 
4 | PpBADH (Pseudomonas putida; F400A/L125T) |  |  |  |  | Km (O=Cc1ccccc1 [3]): 40.97 ± 2.58 µM; kcat (O=Cc1ccccc1 [3]): 0.037 ± 0.000756 s⁻¹; kcat/Km (O=Cc1ccccc1 [3]): 903 ± 59.8 M⁻¹ s⁻¹; Km [4]: 1.73 ± 0.0801 µM; kcat [4]: 0.0431 ± 0.000719 s⁻¹; kcat/Km [4]: 24900 ± 1230 M⁻¹ s⁻¹
5 | steroid aldehyde dehydrogenase (Sad) from Caldimonas tepidiphilia (enzyme) |  |  |  |  | stoichiometry N [5]: 2
6 | SadCtest (Comamonas testosteroni) | 1.93 ± 0.118 µM | 3.57 ± 0.0818 s⁻¹ |  |  | 
